# Experimental data: US20230313187A1, “MODIFICATIONS OF MAMMALIAN CELLS USING ARTIFICIAL MICRO-RNA TO ALTER THEIR PROPERTIES AND THE COMPOSITIONS OF THEIR PRODUCTS” (DNA TWOPOINTO INC., priority 2020, published 2023)
# “And” between values parts separate entries of the source, which are not always exact repeats. Equal values may be shown once.
# B1: SEQ ID NO: 200: four-hairpin amiRNA, two guides to Cricetulus griseus GMD mRNA (35, 36) and two to GFT mRNA (41, 42) (nucleic acid)
# chain: ATCTGATCTTCTGAAGAAAATATATTTCTTTTTATTCATAGCTCTTAACTAGTGGTGATAGCAATGTCAGCAGTGCCTTTAAACTTCTTGATTTCCCAAAGTGAAGCCACAGATGTTTGGGAAATAAAGAAGTTTACAAGTAAGGTTGACCATACTCTACTCTAGTTATATTCTTTAGGCACGAATGTGTGTTTAAAAAAAATAAAAACTAGTGGTGATAGCAATGTCAGCAGTGCCTTCCTCTTAGATCATATTCCAAGGTGAAGCCACAGATGCTTGGAATATAATCTAAGAGGCAAGTAAGGTTGACCATACTCTACTCTAGAGTTGTGTTTTAATGTATATTAATGTTACTAATGTGTTTACTAGTGGTGATAGCAATGTCAGCAGTGCCTTTCAAGTAAAATGAGTATGTGAGTGAAGCCACAGATGTCACATACTCCTTTTACTTGACAAGTAAGGTTGACCATACTCTACTCTAGGTTATTTTTAGTATGATTCTGTAAAAATGAATTAATACTAACTAGTGGTGATAGCAATGTCAGCAGTGCCTTCAATTAGTGGGATCACAACCCGTGAAGCCACAGATGGGGTTGTGATACCACTAATTGCAAGTAAGGTTGACCATACTCTACTCTAGTCAGTTTTATTGATAGTCTTTTCAGTATTATTGATAATCTT
# B2: SEQ ID NO: 204: four-hairpin amiRNA, two guides to Homo sapiens GMD mRNA (47, 49) and two to GFT mRNA (52, 50) (nucleic acid)
# chain: ATCTGATCTTCTGAAGAAAATATATTTCTTTTTATTCATAGCTCTTAACTAGTGGTGATAGCAATGTCAGCAGTGCCTTAAAACATCTTGATTTCACAAAGTGAAGCCACAGATGTTTGTGAAATAAAGATGTTTTCAAGTAAGGTTGACCATACTCTACTCTAGTTATATTCTTTAGGCACGAATGTGTGTTTAAAAAAAATAAAAACTAGTGGTGATAGCAATGTCAGCAGTGCCTTATTACTTGTAAACACTGGTTCGTGAAGCCACAGATGGAACCAGTGTCTACAAGTAATCAAGTAAGGTTGACCATACTCTACTCTAGAGTTGTGTTTTAATGTATATTAATGTTACTAATGTGTTTACTAGTGGTGATAGCAATGTCAGCAGTGCCTTTCACTACTGTGCTGGCCCCGCGTGAAGCCACAGATGGCGGGGCCAGAACAGTAGTGACAAGTAAGGTTGACCATACTCTACTCTAGGTTATTTTTAGTATGATTCTGTAAAAATGAATTAATACTAACTAGTGGTGATAGCAATGTCAGCAGTGCCTTTGTTGTGTAACAACATAATTTGTGAAGCCACAGATGAAATTATGTTATTACACAACACAAGTAAGGTTGACCATACTCTACTCTAGTCAGTTTTATTGATAGTCTTTTCAGTATTATTGATAATCTT
# Legend:
# [1] = system: Cricetulus griseus GDP-Mannose 4,6-dehydratase (GMD), and GDP-fucose transporter 1 (GFT) mRNA; test: Inhibition of antibody fucosylation in CHO with amiRNA targeting GMD and GFT; type: cell-based; settings: 14-day fed batch
# Source text: A multi-hairpin amiRNA gene was designed to target both Cricetulus griseus GDP-Mannose 4,6-dehydratase (GMD), and GDP-fucose transporter 1 (GFT). […]
# Multi-hairpin amiRNA sequence with SEQ ID NO: 200 was placed to the 3′ of an open reading frame encoding a red fluorescent protein (with nucleotide sequence SEQ ID NO: 279) and followed by a rabbit globin polyadenylation sequence. […]
# [2] = system: Homo sapiens GDP-Mannose 4,6-dehydratase (GMD) and GDP-fucose transporter 1 (GFT) mRNA; test: Inhibition of antibody fucosylation in HEK cell pools, amiRNA directed toward GMD and GFT; type: cell-based; settings: HEK pool
# Source text: A second multi-hairpin amiRNA gene was designed to target both Homo sapiens GDP-Mannose 4,6-dehydratase (GMD) with mRNA sequence given by SEQ ID NO: 8, and GDP-fucose transporter 1 (GFT) with mRNA sequence given by SEQ ID NO: 9. The multi-hairpin amiRNA, with nucleotide sequence SEQ ID NO: 204, comprised four hairpins; the first hairpin comprised guide strand sequence SEQ ID NO: 47 (complementary to the mRNA for human GMD, with sequence SEQ ID NO: 8), immediately followed by loop sequence SEQ ID NO: 241 and passenger strand sequence SEQ ID NO: 132; the second hairpin comprised guide strand sequence SEQ ID NO: 52 (complementary to the mRNA for human GFT, with sequence given by SEQ ID NO: 9), immediately followed by loop sequence SEQ ID NO: 241 and passenger strand sequence SEQ ID NO: 137; the third hairpin comprised guide strand sequence SEQ ID NO: 50 (complementary to the mRNA for human GFT, with sequence SEQ ID NO: 9), immediately followed by loop sequence SEQ ID NO: 241 and passenger strand sequence SEQ ID NO: 135 and the fourth hairpin comprised guide strand sequence SEQ ID NO: 49 (complementary to the mRNA for human GMD, with sequence given by SEQ ID NO: 8), immediately followed by loop sequence SEQ ID NO: 241 and passenger strand sequence SEQ ID NO: 134. Each passenger strand sequence was complementary to its corresponding guide strand sequence, except that the bases in the passenger strand sequences corresponding to the 5′ base of the guide strand and the twelfth base of the guide strand were changed to be non-complementary. The first and twelfth bases of guide strand with SEQ ID NO: 47 are T and G respectively, the corresponding bases in the corresponding passenger strand sequence SEQ ID NO: 132 are C and A respectively. […]
# The multi-hairpin amiRNA sequences were placed to the 3′ of an open reading frame encoding a red fluorescent protein (with nucleotide sequence SEQ ID NO: 279) and followed by a rabbit globin polyadenylation sequence. […]
Molecule,"G0 + G1 % (area) ([1]; afucosylated antibody heavy chain, CMV promoter)","G0F + G1F (% area) ([1]; fucosylated antibody heavy chain, BDL=below detection limit, listed as 200)","G0 + G1 % (area) ([2]; afucosylated antibody, 7-day transient culture)","Titer ([2]; antibody in culture supernatant, 7-day culture, listed as 204)","G0F + G1F (% area) ([2]; fucosylated antibody, 7-day transient culture, BDL=below detection limit, listed as 204)"
B1,100 % (area),no fucose was detectable by mass spectroscopy and BDL,,,
B2,,,100 % (area),126 mg/L and 120 mg/L,complete abolition of antibody fucosylation and BDL
